This note sets out measurements from article PMC9907325.

For test [1], the target named is Fc-tagged human IL-2Rαβγ (Acro, ILG-H5257) (human) (UniProt P01589).
The target in test [2] is HCW9302 (IL-2/TF/IL-2 fusion protein) (human) (UniProt P13726). The experiment in a line: SEC; HPLC-SEC profile of purified native HCW9302. (In general: In gel filtration, larger molecules generally elute earlier.)
Test [3] concerns the target Fc-tagged human IL-2Rα (Acro, ILA-H5251) (human) (UniProt P01589). The experiment in a line: SPR; Biacore 8K; Fc-tagged receptors captured by immobilised anti-human IgG (Fc) antibody on CM5 chips; 2-fold dilutions of HCW9302 or IL-2 injected 120 s, dissociation 300 s; regeneration 3 M magnesium chloride; 1:1 fitting model; KD apparent.
Test [4] concerns the target Fc-tagged human IL-2Rαβγ (Acro, ILG-H5257) (human) (UniProt P01589). Described as above.
For test [5], the target named is Fc-tagged human IL-2Rβγ (Acro, ILG-H5254) (human) (UniProt P14784). Described as above.
Test [6] deals with His-tagged cynomolgus IL-2Rα (Sino, 90265-C08H) (cynomolgus monkey). The test can be described thus: SPR; His-tagged human, mouse or cynomolgus IL-2Rα chemically immobilised by amine coupling on CM5 chips; 2-fold dilutions of HCW9302 or IL-2 injected 90 s, dissociation 210 s; regeneration 3 M magnesium chloride; 1:1 fitting model; KD apparent. On the technique in general: Surface plasmon resonance follows binding to a sensor surface in real time, without labels.

Test [7] addresses His-tagged human IL-2Rα (Acro, ILA-H5251) (human) (UniProt P01589). The test is described as above.
Test [8] addresses His-tagged mouse IL-2Rα (Acro, ILG-M52H9) (mouse) (UniProt P01590). The test is described as above.
UniProt P01590, sequence (P01590 22-236): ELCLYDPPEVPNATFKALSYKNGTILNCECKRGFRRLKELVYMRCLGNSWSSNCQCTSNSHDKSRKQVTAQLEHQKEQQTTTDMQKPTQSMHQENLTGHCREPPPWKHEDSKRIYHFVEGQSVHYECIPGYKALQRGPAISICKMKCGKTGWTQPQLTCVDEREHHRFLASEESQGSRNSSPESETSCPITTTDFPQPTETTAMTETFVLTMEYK

UniProt P14784, sequence (P14784 27-240, chain 1 of 2): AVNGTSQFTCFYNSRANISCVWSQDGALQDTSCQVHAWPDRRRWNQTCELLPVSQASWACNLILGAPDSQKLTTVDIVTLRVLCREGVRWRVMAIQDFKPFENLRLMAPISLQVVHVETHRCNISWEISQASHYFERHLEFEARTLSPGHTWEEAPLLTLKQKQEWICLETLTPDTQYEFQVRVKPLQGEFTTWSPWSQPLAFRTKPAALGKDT
UniProt P14784, sequence (P31785 23-262, chain 2 of 2, further chain): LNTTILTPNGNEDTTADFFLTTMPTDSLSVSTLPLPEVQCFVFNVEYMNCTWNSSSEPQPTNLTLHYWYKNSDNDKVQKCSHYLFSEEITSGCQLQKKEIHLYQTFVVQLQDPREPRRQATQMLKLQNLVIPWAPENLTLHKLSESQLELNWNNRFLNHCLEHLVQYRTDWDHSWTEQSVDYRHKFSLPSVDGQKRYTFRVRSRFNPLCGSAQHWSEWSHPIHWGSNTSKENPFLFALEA

A word on the stoichiometry N: it is a count of units in the complex or per binding partner. As a reminder, the koff is a measure of how fast the partners let go of each other. In general, kon refers to the second-order rate constant of association. With “HCW9302 (IL-2/TF/IL-2 fusion protein) (from UniProt P13726 33-251) (ligand)”, the phosphorylation of STAT5 in human Treg cells (PBMC, 30 min, 0.15-15000 pM), half-maximal stimulation (EC50) in test [1] is 6.12 pM. In test [2], this substance returned a stoichiometry N of 2. Besides, the Kd was found to be 1.99 pM in test [3]; 2.01 pM in test [4]; 117 pM in test [5]; 3.19 pM in test [6]; 13.2 pM in test [7]; 296 pM in test [8]. Moreover, the koff in test [3] amounted to 0.107 s⁻¹; in test [4] it was 0.000771 s⁻¹; in test [5] it was 0.00017 s⁻¹; in test [6], 0.000457 s⁻¹; in test [7], 0.00289 s⁻¹; in test [8], 0.000918 s⁻¹. For the same substance, the kon in test [4] amounted to 3.83e+08 M⁻¹ s⁻¹; in test [5], 1.45e+06 M⁻¹ s⁻¹; in test [6], 1.43e+08 M⁻¹ s⁻¹; in test [7], 2.18e+08 M⁻¹ s⁻¹; in test [8], 3.1e+06 M⁻¹ s⁻¹.

In the case of “aldesleukin (Proleukin), clinical grade rhIL-2 (from UniProt P60568 21-153) (ligand)”, the phosphorylation of STAT5 in human Treg cells (PBMC, 30 min, 0.15-15000 pM), half-maximal stimulation (EC50) in test [1] was 43.1 pM.

For the substance “human IL-2 (Acro, S13-H5113) (from UniProt P60568 21-153) (ligand)”, in test [6], the Kd was 16300 pM, the koff was 0.212 s⁻¹ and the kon came out at 1.3e+08 M⁻¹ s⁻¹.
